Source: paper PMC8809517, “Cofactor-independent RNA editing by a synthetic S-type PPR protein”
Changes are numbered by the printed parent chain.

Columns and labels:
Assay in all cases: high-throughput RNA pulldown from lysate on Ni-NTA beads; HRP: 50 mM Tris pH 8, 150 mM NaCl, 1 mM beta-mercaptoethanol, 50 ug/ml BSA, 3 ug/ml yeast RNA, 0.5% heparin; ITC and FP: Tris pH 8, 200 mM KCl, 5% glycerol; MST: 50 mM Tris pH 8, 200 mM NaCl, 1 mM DTT, BSA, heparin, 0.05% Tween 20
Details in all cases: tags: N-terminal His-eGFP
[1] = biological target: T1, GFP-9S library array, motif 4 ND N98R (synthetic construct, N98R)
T1 chain: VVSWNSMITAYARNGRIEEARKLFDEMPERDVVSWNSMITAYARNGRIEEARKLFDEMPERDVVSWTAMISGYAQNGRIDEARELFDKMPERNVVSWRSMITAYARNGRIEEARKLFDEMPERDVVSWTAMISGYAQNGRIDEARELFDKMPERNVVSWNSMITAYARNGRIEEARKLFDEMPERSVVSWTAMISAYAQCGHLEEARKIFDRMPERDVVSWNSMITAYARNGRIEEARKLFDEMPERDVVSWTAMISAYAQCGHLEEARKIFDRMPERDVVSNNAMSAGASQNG

[2] = biological target: T2, GFP-9S library array, motif 4 ND N98T;D124M (synthetic construct, N98T;D124M)
T2 chain: T1 chain with R98T, D124M

[3] = biological target: T3, GFP-9S library array, motif 4 ND D124W (synthetic construct, D124W)
T3 chain: T1 chain with R98N, D124W

[4] = biological target: T4, GFP-9S library array, motif 4 ND N98R;D124S (synthetic construct, N98R;D124S)
T4 chain: T1 chain with D124S

[5] = biological target: T5, GFP-9S library array, motif 4 ND N98I;D124N (synthetic construct, N98I;D124N)
T5 chain: T1 chain with R98I, D124N

Row | Binder | Kd ([1]; label: 5' Cy5) | Kd ([2]; label: 5' Cy5) | Kd ([3]; label: 5' Cy5) | Kd ([4]; label: 5' Cy5) | Kd ([5]; label: 5' Cy5) | Kd ([1]; label: 5' IRDye 800CW) | Kd ([2]; label: 5' IRDye 800CW) | Kd ([3]; label: 5' IRDye 800CW) | Kd ([4]; label: 5' IRDye 800CW) | Kd ([5]; label: 5' IRDye 800CW)
1 | AUUACACGUGA (ssRNA) [Cy5-rpoA] | 207 nM | 101 nM | 78.7 nM | 72.7 nM | 96.4 nM | – | – | – | – | –
2 | AUUAGACGUGA (ssRNA) [Cy5-rpoA-G] | 253 nM | 107 nM | 89.4 nM | 93.6 nM | 117 nM | – | – | – | – | –
3 | AUUAAACGUGA (ssRNA) [IR-rpoA-A] | – | – | – | – | – | 645 nM | 162 nM | 164 nM | 184 nM | 150 nM
4 | AUUAUACGUGA (ssRNA) [IR-rpoA-U] | – | – | – | – | – | 428 nM | 165 nM | 210 nM | 88.9 nM | 18.2 nM
